The nanobody polyreactivity screen of Harvey et al. (2022)

Assay: yeast display, Sf9 membrane polyspecificity reagent, FACS + sequencing; frameworks hold sequencing errors
Outline: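 Synthetic nanobody libraries on Saccharomyces cerevisiae BJ5465 were galactose-induced for 36–48 hours, stained 1 hour at 4 °C with 10% biotinylated, detergent-solubilized Sf9 membrane reagent and enriched on streptavidin microbeads. FACS then separated cells into low and high (top ~1%) gates by anti-HA (expression) and streptavidin (reagent binding) fluorescence. Genes were colony-PCR amplified, MiSeq 2 × 250 sequenced and CDR-length filtered. A clone's polyreactivity label is that of its gate of origin.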

Sequence | polyreactivity (PSR sort gate)
QVQLEESGGGLVQAGGSLRLSCAASGRTFRTYTMGWYRQAPGTERELVAANSKRGSSTYYADSVKGRFTISRDNAKNTVYLQMNSLKPEDTAVYYCAARSWLSNSPYGYWGQGTQVTVSS | high polyreactivity
QVQRVESGGGLVQEAGSLRLSCAASGSILGINVMGWYRHDHGKQRDLVAAISRSGGTTYYADSVKGRFTISRDNGKNTVYLQMNSLKPEDTAVYSCAVYNRPYKEYGYNYCGQGTQVTVSS | high polyreactivity
QVQLVESGGGLVQAGGSLRLSCAASGRIFLYYTMGWYRQAPGKERELVADITWRGGYTYYADSVKGRFTISRDNAKNTVYLQMNSLKPQDTAVYYFNAVSVSYKRSDYWGQGTQVTVSS | low polyreactivity
QVQLVESGGGLVQAGGSLRLSCAASGLTFGDYTMGWYRQAPGKERELVAAITGSGASTYYADSVKGRFTISRDNAQNTGYLQMNSLKPEDTAVYYCDAERTPSYRAYDYWGQGTQVTVSS | low polyreactivity
QVQLVESGGGLVQAGVSLRLSCAASGLIFWAYAMGWYRQAPGKERELVAAINSGGRTYYADSVKGRFTISRDNAKNTVYLQMNSLKPEDTAVYYCAAAGVYSSDYWGQCTQVTVSS | low polyreactivity
QVQLVESGGGLVQAGGSLRLSCAASGYTFVGYAMGWYRQAPGKERELVASISTGDSTYYADSVKGRFTISRDNAKNTVYLQMNSLKPEDTAVYYCAADFWEYEYPYDYWGQGTQVTVSS | low polyreactivity
QVQLVESGGGLVQAGGSLRLSCAASGSIFTADAMGWYRQAPGKERELVAAISRSGGRTYYADSVKGRFTISRDNAKNTDYLQMNSLKPEDTAVYYCAAAFASQYRVVKYYYWGQGTQVTVSS | high polyreactivity
QVQLVESGGGLVQAGGSLRLSCAASGFIFRYNTMGWYRQEPGKERELVAAISKSGGRTYYADSVKGRFTISRDNAMNTVYLQMNSLNPEDTAVYYCAATLSYTGSKRYDYWGQGTQVTVSS | high polyreactivity
QVQLVESGGGLVQAGGSLRLSCAASGFTLRLYVMGWYRQAPGKERELVAAITSSGGSTYYADSVKGRFTISRDNAKNTVYLQMNSLKPEDTAVYYCAAVNRKSQLYGYWGQGTQVTVSS | high polyreactivity
QVQLVESGGGLVQAGGSLRLSCAASGSTFRPYAMGWYRPAPGKEREFVASISNTGGSTSYADSVKGRFTISRDNAMNTVYFQMNSLKPEDTAVYYCAARFGYRPWYRMDYWGQGTQVAVSS | high polyreactivity
EVQLGESGGGLVQAGGSLRLSCAASGSTFNTNAMGWYRQAPGKERELVAAISWSSTRTYYADSVKGRFTISRDNAKNTVYLQINSLKPEDTAVYYCAGRSVGGRYFKGNYWGHGTQVTVSS | high polyreactivity
QVQLVESGGGLVQAGGSLRLSCAASGRTLKYNAMGWYRQAPGKERELVAAISYSGSSTYYADSVNGRFTISRDKAKHTVYLQMNSLKPEDTEVYYCNTARPTAAYDYWGQGTQVTVSS | low polyreactivity
QVQLVESGGGLVQAGGSLRLSCAASGITIRRYGMGWYRQAPGKERELVATITRDGRTYYADSVKGRFTISRDNAKNTVYLQMNSLKPEDTAVYYCARPARYSYGDGYWGQGTQVTVSS | low polyreactivity
QVQLVQSAGGLVQAGGSLRLSCAASGSILSINGMGSYRQAPGKERELVATIDGSDGSTFYADSVKGRLTISRDNAKNTVYFQMNSLKPEDTAVYYCAAENLWQTKEYDYWGLGTQVTVSS | low polyreactivity
QDQLEDSGGGLVQAGGSLRLICAASGSIFDTYAMGWYRQAPGKERELVATISWSGDSTYYADSVKGRFTISRDNAKNTVYLQLNSLKPEDTAVYYCAATTDALVGRPRYDYWGQGTQVTVSS | low polyreactivity
QVQLVESGGGLVKAGGSLRLSCAASGSNFNPYAMGWYRQEPGKQRELVAAITGSGRSTYNSDSVKGRFTISRDNAKNTVYLEMNSLKPEDTAVYYCNRARILVWSKYGYWGQGTQVTVSS | high polyreactivity
QVQLVESGGGLVQAGGSLRLSCAASRRIFGFYAMGWYRQAPGKERELVADINWSATSTYYADSVKGRFTISRDTAKNTVYLQMNSLKPEDTAVYYCAADVSYRYYWGQGTQVTVSS | low polyreactivity
QVQLVESGGGLVQAGGSLRLSCAASGTNVKGWYRQAPGKERELVAAISGSGGSTYYADSVKGRFTISRDNAKNTVYLQMNSLKPEDTAVYYCAADSIQYTARPYDYWGQVTQVTVSS | low polyreactivity
QVQLVESGGGLVQAGGSLRLSCAASGRIFSRNTMGWYRQAPGKEREIVAAISQSGGRTYYADSVKGRFTISRDNAKNPVYLQMNSLNPEDTEVYYCNAQFARSSGFNYWGQGTQVTVSS | high polyreactivity
QVQLVESGGGLVQAGGSLRLTCAASGRIFSRNAMGWYRQAPGKERELVAAISSSGGSTSYADSVKGRFTISRDNAKNTVYLQMNSLKPEDTAVYYCAADSYPAYLGFVGFDYWGQGTQVTVSS | low polyreactivity
QVQLQESGGGLVQEGGSLRLSCAASGNISPPADMGWYRQAPGKERELVASIGTGGTTNYADSVKGRFTISRDNAKNTVYLQMNSLKPDDTAVYYCAAVRYEYNPYDYWGEGTQVTVSS | low polyreactivity
QVQLVESGGGLVQAGGSLRLSCAASGFTLGSNVMGWYRQAPGKERELVAGISQSGGRTFYADSVKGRFTISRDNAKNTVYLQMNSLKPEDTAVYYCNAYRYYSPYGYWGQGTQVTVSS | low polyreactivity

Sequence | polyreactivity (PSR sort gate)
QVQLVESGGGLVQAGGSLRLSCAASGSTFIPNAMGWYSQAPGKERELVAAISTGGSTNYADSVKGRFTISRDNAKNTVYLQMNSLKPEDTAVYYCNARRGYYNPGRRFYYWGQGTQVTVSS | low polyreactivity
QVQLVESGGGLVQAGGSLRISCAASGRIFAGYSMGWYRQAPGKERELVAAIRTRGGSTYYADSVKGRFTISRDKAKNTVYLQMNSLKPEDTEVYYCAATPTWYIWYTYDYWGQGPQVTVSS | high polyreactivity
QVQLVESGGGLVQAGGSLRLSCAASGSIVKHYAMGWYRQAPGKERKLVATITRSGRTNYADSVKGRFTISRDNAKNTVYLQMNSLKPEDTAVYYCNTVRGGQSPHPVRYGYWGQGTQVTVSS | high polyreactivity
QVQLVESGGGLVKAGGSLRLSCAASGRIFYTNDMGWYSQAPGKERELVATISSTGSTNYADSVKGRFTISRDNAKNTVYLEMNSLKPEDTAVYYCAADRSYFLRCIIYDYWGQGTQVTVSS | low polyreactivity
QVQLVESGGGLVQAGGSLRLSCAASGRIIRPYAMGWYRQAPGKERDFVATIRFTTGRTYYADSVKGRFTISRDNAKNTVYLQMNSLKPDDTAVYYCAADFAFVNYAKISYTTHDYWGQGTQVTVSS | high polyreactivity
QVQLVESGGGLVQAGGSLRLSCAASGSIFTYNAMGWYRQAPGKERELVAAINTSGSTNYADSVKGRFTISRDNAKNTVYLQMNSLKPEDTAVYYCAAGIVVTGYAYWGQGTQVTVSA | low polyreactivity
QVQLVESGGGLVQAGGSLRLSCAASGRIFEVYDMGWYRKAPGKERELVAAISESDDNTYYADSVKGRFTISRDNAKNTVYLQMNSLKPEDTAVYYCNADVPGDTGWWGFDYWGQGTQVTVSS | low polyreactivity
QVQLVESGGGLVQAGGSLRLSCAASGRNFYYYAMGWYRQAPGKERELVAGISWSAGSTYYADSVKGRFTISRDNAKNTVYLQMNSLKPEDTAVYYCAARYWQSYRSQVTHSSTLDYWGQGTQVTVSS | low polyreactivity
QVQLVESGGGLVQAGGSLRLSCAASGSTFYDYAMGWYRQAPGKERELVASITTGGDSTYYADSVKGRFTISRDNAKNTVYLQMNSLKPEDTAVYYCNADWYYWISNYQGAPEMDYWGQGTQVTVSS | high polyreactivity
QVQLVESGGGLVQAGGSLRLSCAASGPTFDVYAMGWYRQAPGKERELVATISWRGTSTYYADSVKGRFTISRDNAKNTVYLQMNSLKPEDTAVYYCAAEVYYEYYYWRYYWGQGTQVTVSS | high polyreactivity
QVQHVESGGGLVQAGGSLRLSSAASGRTYWPNAMGWYRQAPGKERELVAAISSGGSTNYADSVKGSFTISRDNAKNTVYLQMNSLKPEDTAVYFWSADGQGDKYDYYGHNYWGQGTHVTVSS | low polyreactivity
QVQLVETGGGLVQAGGSLRLSCAASGLTFIEYAMGWYRQAPGKERELVAAISSGGRTYYADSVKGRFTISRDNAKNTVYLQMNSLKPEDTAVYYCNARGYRRWYNYWGQGTQVTVSS | high polyreactivity
QVQLVESGGGLVQAGGSLRLSCAASGRIFRINGMGWYRQAPGKEREFVAAITSGGGTYYADTVKGRFTISRDNAKNTVYLQMNSLKPEDTAVYYCAAPSYRTRYYYWGQGTQVTVSS | high polyreactivity
QVQLVESGGGLVQAGGSLRLSCAASGYIFIWYDMGGYRQAPGKERELVAAISGSGGSTYYADSVKGRFTISRDNAKNTVYLQMNSLKPEDTAVYYCAAVPAHFYGYDYWGQGTQVTVSS | low polyreactivity
QVQLVESGGGLVQAGGSLRLSCASSGRTISHNAMGWYRQAPGKERELVAAISRSGGRTYYADSVKGRFTISRYNAKNTVYLQMNSLKPEDTAVYYCAAEYFDGSTYSYYYWGQGTQVTVSS | high polyreactivity
QVQLVESGGGLVQAGGSLRLICAASGSTFGRNAMGWYRQAPGKERELVAAITASGGTTYYADSVKGRFTISRDNAKNTVYLQMNSLKPEDTAVYYFARAGHFSFKYDYWGQGTQVTVSS | low polyreactivity
QVQLVESGGGLVQAGGSHRLSCAASGRTFEYNGKGWYRQAPGKERELVAAITRGGSTYYADSVKGRFTISRDNAKNTVYLQMNSLKPEDTAVYYCAAEVGWSRYKWLEYWGQGTQVTVSS | low polyreactivity
QVQHVESGGGLVQAGGSLRLSCAASGSTFWYYDMGGYRQAPGKERELVAAISTRGDSTYYADSVKGRFTISRDNAKNTVYLQMNSLKPEDTAVYYCAKSRQSSGRVRFDYWGQGTQVTVSS | low polyreactivity
QVQLVESGGGLVQAGGSLRLSCAASGSIFPANAMGWYRQAPGKERELVAAISGRGGRTYYADSVKGRFTISRDNAKNTVYLQMNSLKPEDTAVYYCNKVGPLVGGVKYYYWGQGTQVTVSS | high polyreactivity
QVQLVESGGGLVQAGGTLRLSCAASGRTLGANALGWYRQAPGKERELVAAITQSGSSTYYADSVKGRFTISRDNAKNTVYLQMNSLKPEDTAVYYCAAEWNVVLAGAVYFRYNYWGQGTQVNVSS | low polyreactivity
QVQLVESGGGLVQAGGSLRLSCAASGFIFFPYTMGWYRQAPGKERELVAAITNGGSTSYADSVKGRFTISRDNAKNTVYLQMNSLKPEDTAVYYCAADLGRNLLHTFYYWGQGTQVTVSS | low polyreactivity
